Measured values published in the nanobody polyreactivity screen of Harvey et al. (2022).

Assay: yeast display, Sf9 membrane polyspecificity reagent, FACS + sequencing; frameworks hold sequencing errors
How it was run: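 Galactose-induced (36–48 hours) yeast carrying a synthetic nanobody display library were exposed to 10% biotinylated, detergent-solubilized Sf9 membrane reagent at 4 °C for 1 hour. FACS followed streptavidin microbead enrichment, using low and high (top ~1%) gates for expression (anti-HA) and reagent binding (streptavidin). Colony PCR, MiSeq 2 × 250 sequencing and CDR-length filtering followed. Labels for polyreactivity reflect the gate of origin.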

Sequence | polyreactivity (PSR sort gate)
QVQLVESGGGLVQAGGSLRLTCAASGRTFRKNAMGWYRQAPGKERELVAAITGSSGTTYYADSVKGRFTISRDNAKNTVYLQMNSLKPEDTAVYYCATTVGDPGRRYYYWGQGTQVTVSS | high polyreactivity
QVQLVESGGGLVQAGGSLRLSCAASRSIFSAYAMGWYRQAPGKERELVAAISTSGYTNYADSVKGRFTISRDNAKNTVYLQMKSLTPEDTAVYYCAADRVYGDGTAGYGYEFDYWGQVTQVTVSS | low polyreactivity
QVQLVESGGGLVQAGGSLRLSCAASGSTFGPYAMGWYRQAPGKERELVATINSSGSTNYADSVKGRFTISRDNAKNTVYLQMNSLKPEDTAVYYCATLHYYYWYDYWGQGTQVTVSS | low polyreactivity
QVQLVESGGGLVQAGGSLRLSCAASGRSNAMGWYRQAPGKERELVAAISTNGGSTYYADSVKGRFTISRDNAKNTVYLQMNSLKPEDTAVYYCAKRLGRDYTFGYWGQGTQVTVSS | high polyreactivity
QVQLVESGGVLVQAGGSLRLSCAASGSIFRTNVMGWYSQAPGKEREMVASISSDSSTNYADSVKGRFTISRDNEKNTVYLQMNSLKPEDTAVYYCAKDPVVTEHYYWGQGTQVTVSS | low polyreactivity
QVQLVESGGGLVQAGGSLRLSCASSGSTFPSYAMGWYRQAPGKERELVAAINSGGGTNYADSVKGRFTISRDNAKNTVYLQMNSLKPEDTAVYYCAAYEGTYFTEVDYWGQGTQVTVSS | low polyreactivity
QGQLVESGGGLVQAGGSLRLTCAASGITFDDYAMGWYRQAPGKERELVAAISWSGDITYYADSVKGRFTSSRDNATNTVYLQMNSLKPEDTAVYYCAADLSPYGYDYWGQGTQVTVSS | low polyreactivity
QVQLVESGGGLVQAGGSLRLICAASGSIFYRYAMGWYRQAHGKEREFVAAITYSSRTTYYADSVQGRFTISRDNAKNTVYLQMNSLKPEDTAVYYCAAELSSSYYRRAMDYCGQGTQVTVSS | high polyreactivity
QVQLVESGGGLDQARGSLRLSCAASGSNFRYYAIGGYRPAHGKERELVASITGSGGRTYYADSVKGRFTISLDNAKNTVYLQMNSLKPEDTAVYYCAVPYHQGNMDYWGQGTQVTVSS | high polyreactivity
QVQLVESGGGLVQAGGSLRLSCAASGSTFDDYAMGWYRQAPGKERELVAAISSAGTTYYADSVKGRFTISRDNAKNTVYLQMNSLKPEDTAVYYCNTVLYPVWYVNFSLRYRYDYYWGQGTQVTVSS | high polyreactivity
QVQLVESGGGLVQAGGSLRLSCAASGFTFGPNTMGWYRPAPGKERELVAAISARGGRTYYADSVKGRFTISRDNAKNTVYLQMNSLKPEDTAVYYCAAPGYVRTGVTYGGYYWGQGTQVTVSS | high polyreactivity
QLQLVESGGRLVQAAVSLRLSFAASGRTFYPYAMGWYRPAPGKERELVAAITSRGASTYYADSVKGRFTISRDNAKNTVYLQMNSLKPEDTAVYYCNSGRTYRRLGDYLGQGTQVTVSS | high polyreactivity
QGQLEESGGGLVQAGGSLRLSCPASGYILGGNAMGWYRQAPGKERELVARIRVSSGSTYADSVKGRFTISRDNAKNTVYLQMNSLKPEDTAVYYCAASISSRYRYTAYDYWGQGTQVTVSS | high polyreactivity
QVQLEESGGGLVQAGGSLRLSCAASGFTFRRYDMGWYRQAPGKERELVATINRGGSTDSADSVKGRFTISRDNAKNTVYLQMNSLKPEDTAVYYCATRYYSSRTWSEYYYWGQGTQVTVSS | high polyreactivity
PVQLVESGGGLVQAGASLRLSCAASGNTFIENAKGSYRQAPGKERELVADIDTGGSTYYADSVKGRFTISRDNAKNTVYLQMNRLKPEDTADYYCTAVGLYLYRYKFGYLGKIGPGYDYWGQGTQVTVSS | low polyreactivity
QVQLVESGGGLVQAGGSLRLSCSASGSIFDRYTIGWYRQAPWKERDLVAAITFGGGSTYYADSVKVRFTISRDNAKNTDYLQRNSLKPADTAVYYCAKQRHGKLGHILGYNYWGQGTQVTVSS | low polyreactivity

Sequence | polyreactivity (PSR sort gate)
QVQLVESGGGLVQAGGSLRLSCAASGFTLYGYTMGWSRQAPGKERELVAAITVSGTSTYYADSVKGRFTISRDNAKYTVSLQMNSLKPEDTAVYYCAARPRRRYYGYDSWGQGTQVSVSS | high polyreactivity
QVQLVESGGGLVQAGGSLRLSCAASGSIFENNAMGWYRQAPGKERELVAAISSDDTTNYADSVKGRFTISRDNAKNTVYLQMNSLKPEDTAVYYCATDYYVYGYPYDYGYWGQGTQVTVSS | low polyreactivity
QVQLVESGGGLVQAGGSLRLSCAASGSIFQRYAMGWYRQAPGKERELVAGINWSGGRTYYADSVKGRFTISRDNAKNTVYLQMNSLKPEDTAVYYCAKPVERYTYSLYQQYDYWGQGTQVTVSS | high polyreactivity
QVQLVESGGGLVQAGGILRLSCAAPGSTFRKCAMGWYRQAPGKERELVAAISRGGTSTYYADSVKGRFTISRDNAKNTVYLQMNSLKPEDTAVYSCRYFRYSYGTKYDYWGQGTQVTVSS | high polyreactivity
QVQLVESGGGLVQAGGSLRLSCAASGITFRYYAMGWYRQAPGKERELVAAITGNGGGTYADSVKGRFTISRDNAKNTVYLQMNSLKPEVTAVYYCAADEPGLSWYDSYRYPDYGYDYWGQGTQVTVSS | low polyreactivity
QVQLVESGGGLVQAGGSLRLRCAASGRIFGRYAMGWYRQAPGKERELVARITYIAGNTYYADSVKGRFTISRDNSKNTVYLQMKSLKPEDTAVYSCNADSYYIQYDYWGQGTQVTVSS | high polyreactivity
QVQLVESGGGLVQAGGSLRLSCAASGSTFVTYVMGWYRQAPGKERELVADIRRSGGSTYYADSVKGRFTISRDNAKNTVYLQMNSLKPEDTAVYYCAAYQYYYVNEVRRYYYWGQGTQVTVSS | high polyreactivity
QVQLVESGGGLVQAGGSLRLSCADSGSTFPGYTMGWYRQAPGKERELVAAIDGSAGDTYYADSVKGRVTISRDNAKNTVYLQMNSLKPEDTEVYYCAADGPYDYSPWLMYYWGQGTQVTVSS | low polyreactivity
QVQLVESGGGLVQAGGSLRLSCAASGSIFGKNAMGWYRQAPGKERELVAAISATGSRTYYADSVKGRFTISRDNAKNTVYLQMISLKPEETAVYSCTKLVRGVRPEEYDYGGQGTQVTVSS | high polyreactivity
QVQLVESGGGLVQAGGSLRLSCAASGFTIRRYAMGWYRQAPGKERELVAAITTGGSTYYADSVKGRFTISRDNAKNTVYLQMNSLKPEDTAVYYCAALYPYKQYRLGYDSWGQGTQVTVSS | high polyreactivity
QVQLVESGGGLVQAGGSLRLSCAASGRTFVYNAMVWYRQAPGKEREFVAAISWRGGSTFYADSVKGRFTISRDNAKNTVYLQMNSLKPEDTAVYYCAAEGWYYRYDYWGQGTQVTVSS | high polyreactivity
QVQLVESGGGLVQAGGSLRLSCAASGSIFIPNAMGWYRQAPGKERELVAAIRSGGSTYYADSVKGRFTISRDNAKNTVYLQLLSLKPEDTAVYYCAADTYTYYYYLARYYYWGQGTQVTVSS | low polyreactivity
QVQLVESGGGLVQAGGSLRLSCAASGSTSYDNAMGWYRQAPGKERELVASISSDGSTNYADSVKGRFTISRDNAKNTVYLQMNSLKPEDTAVYYCNVEVTRGLSHDPEYDYWGQGTQVTVSS | low polyreactivity
HVQIVESGGGLVQAGGSLRLSCAASGRIFVPYVMGWYRQAPGKERELVASISDSDTSTYYADSVKGRFTISRDNAKNTVYLQINSLKPEDTAVYYCNVDNWGQGTQVTVSS | low polyreactivity
QVQLVESGGGLVQAGGSLRLSCAASGSTFHLYTMGWSRQAPGKERELVAGISRRGGTTYYADSVKGRFTISRDNAKNTVYLQMNSLKPEDTAVYYCAAVYRTYGIGPNNYWGQGTQVTVSS | high polyreactivity
